# In patent US20240228618A1 (Janssen / Centocor, published 2024):
# B1: CD123×CD3 bispecific antibody (bispecific antibody, human IgG4 S228P, kappa, lambda, F234A L235A)
# heavy 1: not shown
# light 1: EIVLTQSPGTLSLSPGERATLSCRASQSVSSSYLAWYQQKPGQAPRLLIYGASSRATGIPDRFSGSGSGTDFTLTISRLEPEDFAVYYCQQDYGFPWTFGQGTKVEIKRTVAAPSVFIFPPSDEQLKSGTASVVCLLNNFYPREAKVQWKVDNALQSGNSQESVTEQDSKDSTYSLSSTLTLSKADYEKHKVYACEVTHQGLSSPVTKSFNRGEC
# heavy 2: EVQLVESGGGLVQPGGSLKLSCAASGFTFNTYAMNWVRQASGKGLEWVGRIRSKYNAYATYYAASVKGRFTISRDDSKNTAYLQMNSLKTEDTAVYYCTRHGNFGNSYVSWFAYWGQGTLVTVSSASTKGPSVFPLAPCSRSTSESTAALGCLVKDYFPEPVTVSWNSGALTSGVHTFPAVLQSSGLYSLSSVVTVPSSSLGTKTYTCNVDHKPSNTKVDKRVESKYGPPCPPCPAPEAAGGPSVFLFPPKPKDTLMISRTPEVTCVVVDVSQEDPEVQFNWYVDGVEVHNAKTKPREEQFNSTYRVVSVLTVLHQDWLNGKEYKCKVSNKGLPSSIEKTISKAKGQPREPQVYTLPPSQEEMTKNQVSLTCLVKGFYPSDIAVEWESNGQPENNYKTTPPVLDSDGSFLLYSKLTVDKSRWQEGNVFSCSVMHEALHNHYTQKSLSLSLGK
# light 2: QAVVTQEPSLTVSPGGTVTLTCRSSTGAVTTSNYANWVQQKPGQAPRGLIGGTNKRAPGTPARFSGSLLGGKAALTLSGAQPEDEAEYYCALWYSNLWVFGGGTKLTVLGQPKAAPSVTLFPPSSEELQANKATLVCLISDFYPGAVTVAWKADSSPVKAGVETTTPSKQSNNKYAASSYLSLTPEQWKSHRSYSCQVTHEGSTVEKTVAPTECS
# Molecular target: human CD123 (human, UniProt P26951 19-378)
# Test: cell-based or functional assay
# human CD123, sequence (P26951 19-378): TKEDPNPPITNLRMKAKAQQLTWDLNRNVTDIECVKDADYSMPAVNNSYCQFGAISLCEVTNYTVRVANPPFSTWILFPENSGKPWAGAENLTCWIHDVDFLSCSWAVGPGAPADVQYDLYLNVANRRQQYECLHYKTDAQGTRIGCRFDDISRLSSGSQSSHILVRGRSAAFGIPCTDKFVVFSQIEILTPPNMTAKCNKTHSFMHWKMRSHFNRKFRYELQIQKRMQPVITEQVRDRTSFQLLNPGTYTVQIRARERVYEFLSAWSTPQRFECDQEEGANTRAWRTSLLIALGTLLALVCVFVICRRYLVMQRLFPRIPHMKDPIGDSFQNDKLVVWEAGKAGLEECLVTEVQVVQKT
binder,measurement,value
B1,"EC50 of T cell-mediated cytotoxicity, target HL-60, HS-5 stroma, no anti-CD44, 48 h",0.142 nM
same,"EC50 of T cell-mediated cytotoxicity, target HL-60, HS-5 stroma, with anti-CD44, 48 h",0.0762 nM
same,"EC50 of T cell-mediated cytotoxicity, target HL-60, no stroma, no anti-CD44, 48 h",0.0868 nM
same,"EC50 of T cell-mediated cytotoxicity, target HL-60, no stroma, with anti-CD44, 48 h",0.0808 nM
same,"EC50 of T cell-mediated cytotoxicity, target KG-1, HS-5 stroma, no anti-CD44, 48 h",0.0319 nM
same,"EC50 of T cell-mediated cytotoxicity, target KG-1, HS-5 stroma, with anti-CD44, 48 h",0.0265 nM
same,"EC50 of T cell-mediated cytotoxicity, target KG-1, no stroma, no anti-CD44, 48 h",0.0028 nM
same,"EC50 of T cell-mediated cytotoxicity, target KG-1, no stroma, with anti-CD44, 48 h",0.0009 nM
same,"EC50 of T cell-mediated cytotoxicity, target MOLM-13, HS-5 stroma, no anti-CD44, 48 h",0.0262 nM
same,"EC50 of T cell-mediated cytotoxicity, target MOLM-13, HS-5 stroma, with anti-CD44, 48 h",0.153 nM
same,"EC50 of T cell-mediated cytotoxicity, target MOLM-13, no stroma, no anti-CD44, 48 h",0.0362 nM
same,"EC50 of T cell-mediated cytotoxicity, target MOLM-13, no stroma, with anti-CD44, 48 h",0.0125 nM
same,"EC50 of T cell-mediated cytotoxicity, target MV4-11, HS-5 stroma, no anti-CD44, 48 h",0.0057 nM
same,"EC50 of T cell-mediated cytotoxicity, target MV4-11, HS-5 stroma, with anti-CD44, 48 h",0.0025 nM
same,"EC50 of T cell-mediated cytotoxicity, target MV4-11, no stroma, no anti-CD44, 48 h",0.0056 nM
same,"EC50 of T cell-mediated cytotoxicity, target MV4-11, no stroma, with anti-CD44, 48 h",0.0026 nM
same,"EC50 of T cell-mediated cytotoxicity, target SKNO-1, HS-5 stroma, no anti-CD44, 48 h",0.0757 nM
same,"EC50 of T cell-mediated cytotoxicity, target SKNO-1, HS-5 stroma, with anti-CD44, 48 h",0.108 nM
same,"EC50 of T cell-mediated cytotoxicity, target SKNO-1, no stroma, no anti-CD44, 48 h",0.0111 nM
same,"EC50 of T cell-mediated cytotoxicity, target SKNO-1, no stroma, with anti-CD44, 48 h",0.0077 nM
